{"source": "paper PMC5492865", "target": "papain (UniProt P00784)", "sequence (P00784 134-345)": "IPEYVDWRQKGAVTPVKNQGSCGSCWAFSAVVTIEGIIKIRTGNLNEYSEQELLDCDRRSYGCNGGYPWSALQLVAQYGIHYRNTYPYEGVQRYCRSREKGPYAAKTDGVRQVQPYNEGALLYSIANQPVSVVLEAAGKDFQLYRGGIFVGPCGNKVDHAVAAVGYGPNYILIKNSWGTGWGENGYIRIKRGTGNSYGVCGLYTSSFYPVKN", "data": [{"substance": "salivary tick cystatin OmC2, recombinant, from insect Sf9 cells, with C-terminal oligo His-tag (non-labeled) (natural protein)", "values": [{"measurement": "active site titration of 10 nM papain with cystatin OmC2 (substrate 10 μM Z-Phe-Arg-AMC, 0.1 M phosphate buffer pH 6.0): molar ratio at which dF/dt = 0 (text: the inhibitor was 88% active)", "result": 1.16, "unit": "molar ratio"}]}]}
